T1: Histidine-rich glycoprotein (HRG), purified from human plasma (human, UniProt P04196 19-525)
T1 chain: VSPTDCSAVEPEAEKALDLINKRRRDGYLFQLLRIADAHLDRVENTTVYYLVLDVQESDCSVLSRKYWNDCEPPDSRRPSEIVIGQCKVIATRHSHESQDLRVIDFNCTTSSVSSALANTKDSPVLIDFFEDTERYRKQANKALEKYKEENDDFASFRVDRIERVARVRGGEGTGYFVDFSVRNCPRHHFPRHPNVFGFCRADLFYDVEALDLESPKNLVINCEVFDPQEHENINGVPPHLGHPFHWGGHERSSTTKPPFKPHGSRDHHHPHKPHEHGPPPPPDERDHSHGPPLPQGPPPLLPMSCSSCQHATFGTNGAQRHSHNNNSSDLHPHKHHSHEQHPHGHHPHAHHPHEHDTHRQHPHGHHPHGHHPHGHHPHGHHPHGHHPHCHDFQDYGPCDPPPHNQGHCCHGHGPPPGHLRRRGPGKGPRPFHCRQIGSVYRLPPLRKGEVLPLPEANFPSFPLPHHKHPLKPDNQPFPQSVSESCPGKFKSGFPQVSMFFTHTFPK

T2: Histidine-rich glycoprotein (HRG), purified from human plasma (human, UniProt P04196 19-525)
T2 construct: histidine-rich glycoprotein, human, 75 kDa plasma protein; source: purified from human plasma
T2 sequence (looked up): T1 chain

B1: human recombinant exCLEC-1A protein (domain or fragment)
chain: QYYQLSNTGQDTISQMEERLGNTSQELQSLQVQNIKLAGSLQHVAEKLCRELYNKAGAHRCSPCTEQWKWHGDNCYQFYKDSKSWEDCKYFCLSENSTMLKINKQEDLEFAASQSYSEFFYSYWTGLLRPDSGKAWLWMDGTPFTSELFHIIIDVTSPRSRDCVAILNGMIFSKDCKELKRCVCERRAGMVKPESLHVPPETLGEGD
B2: extracellular domain of CLEC-1A-Fc (exCLEC-1A-Fc) fusion protein (Fc fusion, UniProt Q8NC01 74-280, looked up)
chain: B1 chain
notes: extracellular domain of CLEC-1A; Source, limits and the kind of Fc are told only in the Transparent Methods (Document S1), if at all

Legend:
[1] = molecular target: T1, Histidine-rich glycoprotein (HRG), …; assay: SPR
[2] = molecular target: T2, Histidine-rich glycoprotein (HRG), …; assay: SPR; BIAcore; exCLEC-1A-Fc fusion protein immobilised on a CM5 sensor chip; HRG flowed over; conditions: both partners purified
[3] = molecular target: T2, Histidine-rich glycoprotein (HRG), …; assay: SPR; BIAcore; HRG purified from human plasma (5 μg/mL) immobilised on a CM5 chip; exCLEC-1A-Fc (3.125, 6.25, 12.5 or 25 μg/mL) or human recombinant exCLEC-1A flowed for 120 s; conditions: both partners purified

Binder	Kd [1] [nM]	Kd [2] [nM]	Kd [3] [nM]
B1	400		
B2		10	7

Reference: publication PMC7267745, “Histidine-Rich Glycoprotein Inhibits High-Mobility Group Box-1-Mediated Pathways in Vascular Endothelial Cells through CLEC-1A” (iScience, 2020)
